# From patent publication US20260001961A1 (ALLIGATOR BIOSCIENCE, published 2026)
# Read-outs that look alike come from different tables or passages of the source.
# T1: 5T4 expressed on CHO cells (UniProt Q13641 32-420, limits assumed)
# T1 construct: whole, on cells; also called CHO-5T4; 5T4 expressing CHO cells
# T1 sequence (looked up): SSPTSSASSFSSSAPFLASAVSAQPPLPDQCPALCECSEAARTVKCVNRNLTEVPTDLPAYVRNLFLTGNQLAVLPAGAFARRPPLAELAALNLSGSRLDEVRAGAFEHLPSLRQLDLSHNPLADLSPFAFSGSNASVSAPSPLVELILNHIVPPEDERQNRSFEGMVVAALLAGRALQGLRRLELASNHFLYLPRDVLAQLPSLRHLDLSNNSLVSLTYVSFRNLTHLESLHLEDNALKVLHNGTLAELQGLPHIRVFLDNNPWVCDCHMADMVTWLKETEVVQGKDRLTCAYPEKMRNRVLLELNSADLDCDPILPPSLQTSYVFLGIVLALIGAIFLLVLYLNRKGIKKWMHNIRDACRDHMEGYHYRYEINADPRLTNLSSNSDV
# T2: 5T4 (UniProt Q13641 32-355)
# T2 construct: also called 5T4 antigen (dual target ELISA)
# T2 sequence (looked up): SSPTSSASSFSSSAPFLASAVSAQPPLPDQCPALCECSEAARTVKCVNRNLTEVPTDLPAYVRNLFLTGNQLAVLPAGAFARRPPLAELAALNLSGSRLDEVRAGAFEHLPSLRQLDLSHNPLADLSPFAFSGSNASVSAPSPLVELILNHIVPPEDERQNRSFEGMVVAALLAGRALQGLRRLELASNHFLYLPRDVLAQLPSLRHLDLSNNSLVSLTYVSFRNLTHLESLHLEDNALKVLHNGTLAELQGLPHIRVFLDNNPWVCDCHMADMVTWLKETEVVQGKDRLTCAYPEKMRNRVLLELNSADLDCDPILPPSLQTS
# T3: EpCAM (UniProt P16422 24-265)
# T3 construct: also called biotinylated EpCAM
# T3 sequence (looked up): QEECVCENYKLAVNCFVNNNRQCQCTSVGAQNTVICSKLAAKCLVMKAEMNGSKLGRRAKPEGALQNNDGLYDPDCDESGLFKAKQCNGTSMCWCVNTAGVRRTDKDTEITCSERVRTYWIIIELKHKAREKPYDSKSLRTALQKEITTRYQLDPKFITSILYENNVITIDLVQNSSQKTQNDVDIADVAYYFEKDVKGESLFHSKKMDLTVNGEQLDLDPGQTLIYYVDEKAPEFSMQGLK
# B1: AC_05330 (bispecific antibody, human IgG1, lambda, L234A L235A)
# heavy: not shown
# light: not shown
# chain: EVQLLESGGGLVQPGGSLRLSCAASGFTFSSYAMSWVREAPGKGLEWVSAISGSGGSTYYADSVKGRFTISRDNSKNTLYLQMNSLRAEDTAVYYCARYYGGYYSAWMDYWGQGTLVTVSSASTKGPSVFPLAPSSKSTSGGTAALGCLVKDYFPEPVTVSWNSGALTSGVHTFPAVLQSSGLYSLSSVVEVPSSSLGTQTYICNVNHKPSNTKVDKKVEPKSC
# notes: RUBY format; H1 (role heavy) = IgG heavy chain-linker-Fab light chain, L1 (role light) = IgG light chain, H2 (role chain) = Fab heavy chain; also called parental bsAb AC_05330; CD40x5T4
# B2: AC_05373 (bispecific antibody, human IgG1, lambda, L234A L235A)
# heavy 1: not shown
# light: not shown
# heavy 2: EVQLLESGGGLVQPGGSLRLSCAASGFTFSSYAMSWVREAPGKGLEWVSAISGSGGSEYYADSVKGRFTISRDNSKNTLYLQMNSLRAEDTAVYYCARYYGGYYSAWMDYWGQGTLVTVSSASTKGPSVFPLAPSSKSTSGGTAALGCLVKDYFPEPVTVSWNSGALTSGVHTFPAVLQSSGLYSLSSVVEVPSSSLGTQTYICNVNHKPSNTKVDKKVEPKSC
# notes: AC_05330 with the mutation in the VH of chain H2; also called T65E mutant of AC_05330; copies: 2 + 2 + 2
# B3: AC_05293 (bispecific antibody)
# heavy: not shown
# light: DIQMTQSPSSLSASVGDRVTITCRASQSISSYLNWYQEKPGKAPKLLIYAASSLQSGVPSRFSGSGSGTDFTLTISSLQPEDFATYYCQQYGRNPPTFGQGTKLEIKRTVAAPSVFIFPPSDEQLKSGTASVVCYLNNFYPREAKVQWKVDNALQSGNSQESVTEQDSKDSTYSLWSTLTLSKADYEKHKVYACEVTHQGLSSPVTKSFNRGEC
# chain: EVQLLEQSGAELVRPGTSVKISCKASGYAFTNYWLGWVKERPGHGLEWIGDIFPGSGNIHYNEKFKGKATLTADKSSSTAYMQLSSLTFEDSAVYFCARLRNWDEPMDYWGQGTTVTVSSASTKGPSVFPLAPSSKSTSGGTAALGCLVKDYFPEPVTVSWNSGALTSGVHTFPAVLQSSGLYSLSSVVEVPSSSLGTQTYICNVNHKPSNTKVDKKVEPKSC
# notes: Chain H1 (role heavy) = IgG heavy chain-linker-Fab light chain; chain L1 (role light) = IgG light chain; chain H2 (role chain) = Fab heavy chain VH-CH1; also called wt bsAb (AC_05293); wild-type bsAb
# B4: AC_05370 (bispecific antibody, human IgG1, kappa, L234A L235A)
# heavy 1: not shown
# light: DIQMTQSPSSLSASVGDRVTITCRASQSISSYLNWYQEKPGKAPKLLIYAASSLQSGVPSRFSGSGSGTDFTLTISSLQPEDFATYYCQQTYGYLHTFGQGTKLEIKRTVAAPSVFIFPPSDEQLKSGTASVVCYLNNFYPREAKVQWKVDNALQSGNSQESVTEQDSKDSTYSLWSTLTLSKADYEKHKVYACEVTHQGLSSPVTKSFNRGEC
# heavy 2: EVQLLESGGGLVQPGGSLRLSCAASGFTFSSYAMSWVREAPGKGLEWVSGIGSYGGGEYYADSVKGRFTISRDNSKNTLYLQMNSLRAEDTAVYYCARYVNFGMDYWGQGTLVTVSSASTKGPSVFPLAPSSKSTSGGTAALGCLVKDYFPEPVTVSWNSGALTSGVHTFPAVLQSSGLYSLSSVVEVPSSSLGTQTYICNVNHKPSNTKVDKKVEPKSC
# notes: AC_05332 with the mutation in the VH of chain H2; also called T65E mutant of AC_05332; copies: 2 + 2 + 2
# B5: AM_4120 (bispecific antibody)
# heavy 1: not shown
# heavy 2: EVQLLEQSGAELVRPGTSVKISCKASGYAFTNYWLGWVKERPGHGLEWIGDIFPGSGNIHYNEKFKGKATLTADKSSSTAYMQLSSLTFEDSAVYFCARLRNWDEPMDYWGQGTTVTVSSASTKGPSVFPLAPSSKSTSGGTAALGCLVKDYFPEPVTVSWNSGALTSGVHTFPAVLQSSGLYSLSSVVEVPSSSLGTQTYICNVNHKPSNTKVDKKVEPKSC
# light: DIQMTQSPSSLSASVGDRVTITCRASQSISSYLNWYQEKPGKAPKLLIYAASSLQSGVPSRFSGSGSGTDFTLTISSLQPEDFATYYCQQYGRNPPTFGQGTKLEIKRTVAAPSVFIFPPSDEQLKSGTASVVCYLNNFYPREAKVQWKVDNALQSGNSQESVTEQDSKDSTYSLWSTLTLSKADYEKHKVYACEVTHQGLSSPVTKSFNRGEC
# notes: also called single mutant A111V of AC_05293; copies: 2 + 2 + 2
# B6: AC_05378 (bispecific antibody)
# heavy 1: not shown
# light: DIQMTQSPSSLSASVGDRVTITCRASQSISSYLNWYQEKPGKAPKLLIYAASSLQSGVPSRFSGSGSGTDFTLTISSLQPEDFATYYCQQYGRNPPTFGQGTKLEIKRTVAAPSVFIFPPSDEQLKSGTASVVCYLNNFYPREAKVQWKVDNALQSGNSQESVTEQDSKDSTYSLWSTLTLSKADYEKHKVYACEVTHQGLSSPVTKSFNRGEC
# heavy 2: EVQLLESGGGLVQPGGSLRLSCAASGFTFSSYAMSWVREAPGKGLEWVSAISGSGGSIYYADSVKGRFTISRDNSKNTLYLQMNSLRAEDTAVYYCARYYGGYYSAWMDYWGQGTLVTVSSASTKGPSVFPLAPSSKSTSGGTAALGCLVKDYFPEPVTVSWNSGALTSGVHTFPAVLQSSGLYSLSSVVEVPSSSLGTQTYICNVNHKPSNTKVDKKVEPKSC
# notes: AC_05302 with the mutation in the VH of chain H2; also called T65I mutant of AC_05302; copies: 2 + 2 + 2
# B7: AC_05377 (bispecific antibody)
# heavy 1: not shown
# light: DIQMTQSPSSLSASVGDRVTITCRASQSISSYLNWYQEKPGKAPKLLIYAASSLQSGVPSRFSGSGSGTDFTLTISSLQPEDFATYYCQQYGRNPPTFGQGTKLEIKRTVAAPSVFIFPPSDEQLKSGTASVVCYLNNFYPREAKVQWKVDNALQSGNSQESVTEQDSKDSTYSLWSTLTLSKADYEKHKVYACEVTHQGLSSPVTKSFNRGEC
# heavy 2: EVQLLESGGGLVQPGGSLRLSCAASGFTFSSYAMSWVREAPGKGLEWVSAISGSGGSAYYADSVKGRFTISRDNSKNTLYLQMNSLRAEDTAVYYCARYYGGYYSAWMDYWGQGTLVTVSSASTKGPSVFPLAPSSKSTSGGTAALGCLVKDYFPEPVTVSWNSGALTSGVHTFPAVLQSSGLYSLSSVVEVPSSSLGTQTYICNVNHKPSNTKVDKKVEPKSC
# notes: AC_05302 with the mutation in the VH of chain H2; also called T65A mutant of AC_05302; copies: 2 + 2 + 2
# B8: AM_4119 (bispecific antibody)
# heavy 1: not shown
# heavy 2: EVQLLEQSGAELVRPGTSVKISCKASGYAFTNYWLGWVKERPGHGLEWIGDIFPGSGNIHYNEKFKGKATLTADKSSSTAYMQLSSLTFEDSAVYFCARLRNWDEPMDYWGQGTTVTVSSASTKGPSVFPLAPSSKSTSGGTAALGCLVKDYFPEPVTVSWNSGALTSGVHTFPAVLQSSGLYSLSSVVEVPSSSLGTQTYICNVNHKPSNTKVDKKVEPKSC
# light: DIQMTQSPSSLSASVGDRVTITCRASQSISSYLNWYQEKPGKAPKLLIYAASSLQSGVPSRFSGSGSGTDFTLTISSLQPEDFATYYCQQYGRNPPTFGQGTKLEIKRTVAAPSVFIFPPSDEQLKSGTASVVCYLNNFYPREAKVQWKVDNALQSGNSQESVTEQDSKDSTYSLWSTLTLSKADYEKHKVYACEVTHQGLSSPVTKSFNRGEC
# notes: also called single mutant A111T of AC_05293; copies: 2 + 2 + 2
# B9: AM_4121 (bispecific antibody)
# heavy 1: not shown
# heavy 2: EVQLLEQSGAELVRPGTSVKISCKASGYAFTNYWLGWVKERPGHGLEWIGDIFPGSGNIHYNEKFKGKATLTADKSSSTAYMQLSSLTFEDSAVYFCARLRNWDEPMDYWGQGTTVTVSSASTKGPSVFPLAPSSKSTSGGTAALGCLVKDYFPEPVTVSWNSGALTSGVHTFPAVLQSSGLYSLSSVVEVPSSSLGTQTYICNVNHKPSNTKVDKKVEPKSC
# light: DIQMTQSPSSLSASVGDRVTITCRASQSISSYLNWYQEKPGKAPKLLIYAASSLQSGVPSRFSGSGSGTDFTLTISSLQPEDFATYYCQQYGRNPPTFGQGTKLEIKRTVAAPSVFIFPPSDEQLKSGTASVVCYLNNFYPREAKVQWKVDNALQSGNSQESVTEQDSKDSTYSLWSTLTLSKADYEKHKVYACEVTHQGLSSPVTKSFNRGEC
# notes: also called single mutant A111W of AC_05293; copies: 2 + 2 + 2
# Experiments:
# [1] = target: T1, 5T4 expressed on CHO cells; assay: flow cytometry on CHO cells expressing 5T4, anti-human IgG Fcg-PE; CHOwt cells as control
# Procedure: (§1) Binding to respective targets expressed on cells were evaluated using flow cytometry. I brief, CHO cells modified to express 5T4, B16 cells modified to express CD40 as well as the wildtype CHO and B16 cell lines were incubated with titrated concentrations of RUBY™ bsAbs. Binding of the antibodies was detected using fluorochrome-conjugated anti-human IgG and analyzed using flow cytometry.
# [2] = target: T4, CD40 expressed on cells (UniProt P25942 21-277); assay: flow cytometry on B16 cells expressing CD40, anti-human IgG Fcg-PE; B16wt cells as control
# T4 construct: whole, on cells; also called B16-CD40; CD40 expressing B16 cells
# T4 sequence (P25942 21-277 limits assumed): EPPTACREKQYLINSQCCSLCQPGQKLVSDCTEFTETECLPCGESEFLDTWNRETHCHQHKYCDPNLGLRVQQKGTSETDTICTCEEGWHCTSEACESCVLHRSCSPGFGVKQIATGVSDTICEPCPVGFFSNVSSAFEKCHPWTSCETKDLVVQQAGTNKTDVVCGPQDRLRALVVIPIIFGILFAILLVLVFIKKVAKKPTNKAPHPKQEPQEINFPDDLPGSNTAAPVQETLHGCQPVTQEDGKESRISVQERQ
# Procedure: as §1
# [3] = target: T5, CD40 (UniProt P25942 21-193); assay: dual target ELISA with 5T4 and CD40 (one coated, the other biotinylated; which is not stated), streptavidin-HRP; signal needs both targets
# T5 construct: also called biotinylated CD40; CD40 antigen
# T5 sequence (P25942 21-193 limits assumed): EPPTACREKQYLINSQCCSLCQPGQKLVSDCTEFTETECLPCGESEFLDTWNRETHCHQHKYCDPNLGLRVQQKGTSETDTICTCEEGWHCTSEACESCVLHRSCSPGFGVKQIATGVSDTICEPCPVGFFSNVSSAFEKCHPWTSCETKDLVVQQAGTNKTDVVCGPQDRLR
# [4] = target: T2, 5T4; assay: as above
# [5] = target: T5, CD40; assay: Octet BLI; biotinylated CD40 on streptavidin sensor;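 also: octet RED96 biolayer interferometry, 300 s association then 300 s dissociation in kinetic buffer, buffer-blank referenced, fitted with a 1:1 Langmuir binding model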
# Procedure: Kinetic measurements were performed using the Octet RED96 platform (ForteBIo). […] Association was followed for 300 seconds followed by dissociation in 1x Kinetic buffer for 300 seconds. Sensor tips were regenerated using 10 mM glycine, pH 1.7. Data generated were referenced by subtracting a parallel buffer blank, the baseline was aligned with the γ-axis, inter-step correlation by alignment against dissociation was performed and the data were smoothed by a Savitzky-Golay filter in the data analysis software (v.9.0.0.14). The processed data were fitted using a 1:1 Langmuir binding model with X2 as a measurement of fitting accuracy.
# Binding affinities of all the variants were determined using Octet (Pall ForteBio).
# [6] = target: T3, EpCAM; assay: Octet BLI; biotinylated EpCAM on streptavidin sensor;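 also: octet RED96 kinetics: 300 s association, then 300 s dissociation in 1x Kinetic buffer, buffer-blank referenced, Savitzky-Golay smoothed, fitted to a 1:1 Langmuir binding model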
# [7] = target: T5, CD40; assay: dual ELISA: CD40 coated, bsAb titrated, biotinylated EpCAM + streptavidin-HRP; signal needs both targets
# Procedure: (§2) Dual ELISA Plates were coated with 0.5 μg/mL CD40 in PBS over night at 4° C. After washing in PBS/0.05% Tween 20 (PBST), the plates were blocked with PBS/2% BSA for at least 30 minutes at room temperature before being washed again. Samples serially diluted in PBS/0.5% BSA were then added and allowed to bind for at least 1 hour at room temperature. […] Dual complexed bsAb with CD40 and EpCAM were detected with HRP-labelled streptavidin. SuperSignal Pico Luminescent was used as substrate and luminescence signals were measured using Fluostar Optima.
# [8] = target: T5, CD40; assay: as above; remark: listed apart in the source
# Procedure: as §2
# [9] = target: T1, 5T4 expressed on CHO cells; assay: flow cytometry on CHO cells expressing 5T4, anti-human IgG Fcg-PE; CHOwt cells as control; remark: listed apart in the source
# Procedure: as §1
# [10] = target: T5, CD40; assay: dual ELISA: CD40 coated, bsAb titrated, biotinylated EpCAM + streptavidin-HRP; signal needs both targets; remark: listed apart in the source
# Procedure: as §2
# [11] = target: T4, CD40 expressed on cells; assay: flow cytometry on B16 cells expressing CD40, anti-human IgG Fcg-PE; B16wt cells as control; remark: listed apart in the source
# Procedure: as §1
binder,measurement,setting,value
B1,EC50 (read off the curve),[1],~30 nM
same,EC50 (read off the curve),[2],~0.8 nM
same,EC50 (read off the curve),[3],~0.8 nM
same,EC50 (read off the curve),[4],~0.8 nM
B2,EC50 (read off the curve),[1],~30 nM
same,EC50 (read off the curve),[2],~0.6 nM
same,EC50 (read off the curve),[3],~0.7 nM
same,EC50 (read off the curve),[4],~0.7 nM
B3,Kd,[5],0.93 nM
same,koff,[5],0.001 s⁻¹
same,kon,[5],1.1e+06 M⁻¹ s⁻¹
same,Kd,[6],4.8 nM
same,koff,[6],0.0012 s⁻¹
same,kon,[6],230000 M⁻¹ s⁻¹
same,EC50 (read off the curve),[7],~0.1 µg/mL
same,EC50 (read off the curve),[8],~0.9 nM
B4,EC50 (read off the curve),[9],~9 nM
B5,EC50 (read off the curve),[10],~0.1 µg/mL
B6,EC50 (read off the curve),[11],~1 nM
B7,EC50 (read off the curve),[11],~1 nM
B8,EC50 (read off the curve),[10],~0.1 µg/mL
B9,EC50 (read off the curve),[10],~0.1 µg/mL
